Measured values taken from US20230057263A1 (CYTOMX THERAPEUTICS, published 2023).
Positions count from the first letter of the chain named. Each block holds one binder with its values, some of them ahead of it. No end group written: not given here. *: point of attachment. Biotin = O=C1N[C@H]2[C@H](CS[C@H]2CCCCC(=O)*)N1; linker = not defined here

Columns and labels:
AGS73.15 (MS497) [1] = molecular target: T1, AGS73.15 (MS497); assay: flow cytometry, blocking of AGS73.15 binding to CD3ε on human T cells, % binding, the axis reads nM
T1 construct: It carries a human IgG Fc (detected with anti-human IgG Fc)

AGS73.15 (MS497) [2] = molecular target: T1, AGS73.15 (MS497); assay: flow cytometry, blocking of AGS73.15 (200 ng/ml) binding to CD3ε on human T cells; AGS73.15 detected with anti-human IgG Fc-PE
cynomolgus CD3-epsilon [3] = molecular target: T2, cynomolgus CD3-epsilon (cynomolgus, UniProt Q95LI5 22-198); assay: flow cytometry on cynomolgus T cells
T2 construct: whole, on cells; also called CD3ε on cynomolgus T cells / PBMCs
T2 sequence (Q95LI5 22-198): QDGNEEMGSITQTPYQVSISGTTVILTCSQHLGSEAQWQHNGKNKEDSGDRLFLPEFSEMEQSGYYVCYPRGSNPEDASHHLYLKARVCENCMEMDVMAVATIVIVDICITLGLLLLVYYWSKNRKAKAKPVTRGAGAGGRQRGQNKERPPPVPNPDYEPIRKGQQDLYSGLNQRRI
Description: (§1) In these experiments, human or cynomolgus T cells were incubated with an anti-CD3ε antibody and binding was assessed by flow cytometry.
(§2) Briefly, donor T cells from either human or cynomolgus donors were resuspended in FACS buffer containing 0.1% sodium azide and aliquoted in 100 μL volumes. For incubation, 100 μL aliquots of donor T cells were mixed with 50 μL of antibodies diluted in FACS buffer containing 0.1% sodium azide. The cells were then washed twice with FACS buffer containing sodium azide. The bound antibody was detected by incubating cells for 60 minutes with a 1:200 dilution of SAV-RPE (Invitrogen Cat No. SA10044, Lot. 1542820A) or 1:100 dilution of goat-anti-Mouse Fcγ-RPE (Jackson Cat. No. 115-116-071, Lot. 108668, diluted in 0.2% goat serum). The cells were washed, fixed, and analyzed with an Accuri Flow Cytometer.
(§3) Treatment with OKT3, SP34-2, and diL2K antibodies were used as positive controls for T cell binding. […] Treatment with OKT3, SP34-2, and diL2K antibodies were used as controls for T cell binding with only SP34-2 binding to cynomolgus T cells, as expected.

human CD3 epsilon (CD3ε) = molecular target: T3, human CD3 epsilon (CD3ε) (human, UniProt P07766 23-207); assay: flow cytometry on human T cells
T3 construct: Present on donor human T cells as part of the TCR-CD3 complex; also called CD3ε on human T cells
Description: as §1, §2, §3

[4] = molecular target: T4, biotinylated 15-mer peptide corresponding to the CD3ε N-terminus (human, UniProt P07766 22-36, limits assumed, not fully specified; reading uncertain); assay: Luminex bead assay, peptide on streptavidin beads
T4 construct: domain: N-terminal 15-mer; Immobilised on streptavidin-conjugated Luminex beads; The text says 'peptides' in the plural, so more than one overlapping N-terminal 15-mer may be meant; also called N-terminal 15-mer; biotinylated N-terminal 15-mer
T4 peptide (looked up): {Biotin-linker}-QDGNEEMGGITQTPY
Description: A set of experiments was performed to map the epitope recognized by the anti-CD3ε antibodies. In these experiments, the anti-CD3ε antibodies were assessed for binding to a collection of overlapping 15-mer peptides spanning amino acids 1-27 of human CD3ε protein using a Luminex bead assay. Control CD3 proteins, control peptides, or the test peptides were immobilized on Luminex beads and incubated with a panel of anti-CD3 antibodies. Binding of the anti-CD3 antibodies to the peptide/protein immobilized on the Luminex bead was detected by R-Phycoerythrin conjugated secondary antibody.
Recombinant CD3 proteins (human CD3d/e heterodimer and cynomolgus CD3-epsilon (Sinobiological)) and control peptides (#p1, #p2, and #p3) were conjugated to Luminex beads using standard EDC/Sulfo-NHS chemistry. […] The Luminex beads with immobilized peptides or reagents were incubated with 50 ul of a panel of anti-CD3 antibodies (1 ug/ml) for one hour at room temperature, washed two times, incubated with mixture of anti-human and anti-mouse IgG-RPE (Jackson Immunoresearch 109-116-097 and Southern Biotech 1030-09, respectively) for 30 mins at RT, washed three times, and analyzed in the Luminex instrument to assess the level of bound anti-CD3 antibodies.

cynomolgus CD3-epsilon [5] = molecular target: T2, cynomolgus CD3-epsilon; assay: flow cytometry, three-colour staining (CD3/CD4/CD8) of cynomolgus PBMCs of three donors
Description: Cross-reactivity of anti-CD3ε antibodies to cynomolgus CD3-epsilon was assessed by three-color phenotyping (CD3/CD4/CD8) using PBMCs from three different cynomolgus donors.
PBMCs from different cynomolgus donors were stained with anti-CD4, anti-CD8, and a panel of different anti-CD3 antibodies. For each anti-CD3 antibody, the CD3 positive cells were gated and assessed for their CD4/CD8 phenotype. FIG. 8A depicts the total CD3 positive cells in PBMCs from the three different donors. FIGS. 8B-8E show the percentage of CD3 positive cells displaying CD4−/CD8+, CD4+/CD8−, CD4+/CD8+, and CD4−/CD8− phenotypes, respectively.

B1: 6d59.id.1b18.1 (antibody, V domains shown)
VH: DVLLQESGPGLVKPSQSLSLTCSVTGYSITSGHYWIWIRQFPGNKLEWMGYITYDGSNNYNPSLKKRISITRDTSENQFFLKLNPVTTEDTATYYCARDVADSYGNGYDAMDYWGQGTSVTVSS
VL: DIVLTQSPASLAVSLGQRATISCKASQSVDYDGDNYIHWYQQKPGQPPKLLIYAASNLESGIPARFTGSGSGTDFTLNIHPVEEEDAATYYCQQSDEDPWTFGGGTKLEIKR
notes: Anti-idiotypic antibody against 6d59
EC50 (AGS73.15 (MS497) [1]): 443 pM | IC50 (read off the curve) (AGS73.15 (MS497) [2]): ~0.07 µg/mL

B2: 6d58 (antibody, V domains shown)
VH: QVHLVESGGGVVQPGRSLRLSCAASGFKFRSYGMHWVRQAPGKGLEWVAIIWYDGSKRYYADSVKGRFTISRDNSKNTLYLQMSSLRAEDTAVYYCARDLITGTTDYWGQGTLVTVSS
VL: DVVMTQSPLSLPVTLGQPASISCRSSRSLVYSDGNTHLIWFQQRPGQSPRRLIYRVSNRVSGVPDRFSGSGSGTDFTLKISRVEAEDVGVYYCLQGAHWPYTFGQGTKLEIKR
notes: also called 6d58 (same as 6d59)
EC50 (read off the curve) (cynomolgus CD3-epsilon [3]): ~70 pM | EC50 (read off the curve) (human CD3 epsilon (CD3ε)): ~50 pM

B5: 6d59.id.1b67.1 (antibody, V domains shown)
VH: QVTLKESGPGILKPSQTLSLTCSFSGFSLSTSGMGVGWIRQPSGKGLEWLAHIWWDDDKFYKPSLKNRLTISKDTSRNQVFLKITSVDTADAATYFCVRRSAYEAFTLDYWGQGTSVTVSS
VL: DIMLTQSPASLAVSLGQRATISCKASQSVDYDGNGYLNWYQQKPGQPPKLLIYAASNLESGIPARFSGSGSGTDFTLNIHPVEEEDVATYYCQQSSEDPFTFGSGTKLEIKR
notes: as for B1
EC50 (AGS73.15 (MS497) [1]): 560 pM | IC50 (read off the curve) (AGS73.15 (MS497) [2]): ~0.08 µg/mL

B7: 6d59.id.1b54.1 (antibody, V domains shown)
VH: DVQLQESGPGLVKPSQSLSLTCSVTGYSITSSYYWNWIRQFPGNKLEWMGSIMYDGNNNYNPSLKNRISITRDTSKNQFFLKLNSVTTEDTATYYCARNMADYFGNTYDALDYWGQGTSVTVSS
VL: DILLTQSPGSLAVSLGQRATISCKASQSADYGGDSYMSWYQQKPGQPPKLLIYAASNLESGTPARFSGSGSGTDFTLNIHPVEEEDAATYYCQQGNEDPWTFGGGTKLEIKR
notes: as for B1
EC50 (AGS73.15 (MS497) [1]): 414 pM | IC50 (read off the curve) (AGS73.15 (MS497) [2]): ~0.07 µg/mL

B9: 6d59.id.1b73.1 (antibody, V domains shown)
VH: QVQLQQSGPEVVKPGASVKMSCKASGYTFTDCVISWIKQRTGQGLEWIGEIHPGSGNTYNNEKFKGKATLTADKSSNTAYIQLSSLTSEDSAVYFCARVGDWYDDAMDYWGQGTSVTVSS
VL: B5 VL with M3V, L37M, V87A, S96N, F100Y, S104G
notes: as for B1
EC50 (AGS73.15 (MS497) [1]): 335 pM | IC50 (read off the curve) (AGS73.15 (MS497) [2]): ~0.05 µg/mL

B10: 6d59.id.1b71.1 (antibody, V domains shown)
VL: B5 VL with M3V, L37M, V87A, S96N, F100Y, S104G
V domain: EVQLQQSGSELASPGTSVKLSCKASGYTFTSYWVQWIKQRPGQGLEWIGAIYPGDGDLRSTQKFKGKATLTADKSSDTAYMQLSSLASEDSAVYYCARLDDFDLDYWGQGTTLIVSS
notes: as for B1
EC50 (AGS73.15 (MS497) [1]): 327 pM | IC50 (read off the curve) (AGS73.15 (MS497) [2]): ~0.06 µg/mL

B11: 6d59.id.1b61.1 (antibody, V domains shown)
VH: B7 VH with S51Y
VL: B7 VL
notes: as for B1
EC50 (AGS73.15 (MS497) [1]): 368 pM | IC50 (read off the curve) (AGS73.15 (MS497) [2]): ~0.06 µg/mL

More lines, now with the values ahead:

binding result [4]: no binding (tested: 1 ug/ml)
B3: 6d23 (antibody, V domains shown)
VH: QVQLVESGGGVVQPGRSLRLSCEASGFTFRSYGMHWVRQAPGKGLEWVAIIWYDGSNKYYGDSVKGRFTISRDNSKNTLSLQMNSLRAEDTAVYYCASLSVNDYYVLDVWGQGTTVTVSS
VL: DVVMTQSPFSLPVTLGQPASMSCRSSQSLVNSDGKTHLNWFQQRPGQSPRRLIYKVSNRDSGVPDRFSGSGSGTDFTLKISRVEAEDVGVYYCMQGTHWPLTFGGGTKVEIKR
notes: Anti-CD3ε antibody; also called 6d23.1; VCD3-6d23.1

binding result (cynomolgus CD3-epsilon [5]): binds
B4: 1c144.1 (antibody, V domains shown)
VH: ELQLVESGGGLVQPGGSLRLSCAASGFNFRSYEMNWVRQAPGKGLEWVSYISSSSTTIYYAGSVKGRFTISRDNAKHSLYLQMNSLRAEDTAVYYCARDRGALDYWGQGTLVTVSS
VL: DIQMTQSPSSLSASVGDRVTITCQASQDIRKYLNWYQQKPGKAPKLLIYDASNLETGVPSRFSGSGSGTDFSFTISSLQPEDLATYYCQHYANLPPLFTFGPGTKVDIKR
notes: the sheet prints 1c144.1

binding result (cynomolgus CD3-epsilon [3]): no binding | EC50 (read off the curve) (human CD3 epsilon (CD3ε)): 1000 to 3000 pM
B6: 4b8 (antibody, V domains shown)
VH: EVQLVESGGGLVKPGGSLRLSCAASGFTFSSYSMNWVRQAPGKGLDWVSYISRSSNYTYYADSVMGRFTISRDNAKNSLYLQMNSLRAEDTAVYYCARDRRGYSGYNHFDYWGQGTLVTVSS
VL: DIQMTQSPSSLSASVGDRVTITCRASQSISNYLNWYQQKPGKAPKLLIYAASSLQSGVPSRFSGSRSGTDFTLTISSLQPEDFASYYCQQSFSTLYTFGQETKLEIKR
notes: Anti-CD3ε antibody

EC50 (AGS73.15 (MS497) [1]): 243 pM | IC50 (read off the curve) (AGS73.15 (MS497) [2]): ~0.05 µg/mL
B8: 6d59.id.1b76.1 (antibody, V domains shown)
VH: DVKLVDSGGGLVKPGGSLKLSCAASGFTFSNYGMSWVRQTPEKRLEWVATISSGGYYTYYPDSVKGRFTISRDNAKNTLYLQMGSLKSEDTAMYYCSRDREGFGNYLGAMDYWGQGTSVTVSS
VL: B5 VL with M3V, L37M, V87A, S96N, F100Y, S104G
notes: as for B1
